Reference: article PMC5913134, “The IL-33-PIN1-IRAK-M axis is critical for type 2 immunity in IL-33-induced allergic airway inflammation” (Nature Communications, 2018)

Molecular target: PIN1 (GST-PIN1, GFP-PIN1, 15N-PIN1-WW) (UniProt Q13526)
Test: co-IP with anti-GFP, blot
Conditions: reference: wild type; sites S110

binding against the reference: lost
Substance: IRAK-M (transfected constructs and synthetic peptides) (from UniProt Q9Y616) S110A
